Results: publication PMC11480844 (2024)

B1: H2-Kb / Ed16-1 (parent complex)
chain 1: GEQVEQRPPHLSVREGDSAVITCTYTDPNSYYFFWYKQEPGASLQLLMKVFSSTEINEGQGFTVLLNKKDKRLSLNLTAAHPGDSAAYFCAVSGSNNRIFFGDGTQLVVKP
chain 2: EAAVTQSPRSKVAVTGGKVTLSCHQTNNHDYMYWYRQDTGHGLRLIHYSYVADSTEKGDIPDGYKASRPSQENFSLILELASLSQTAVYFCASRTGTDYTFGSGTRLLVI
chain 3: not shown
chain 4: IQKTPQIQVYSRHPPENGKPNILNCYVTQFHPPHIEIQMLKNGKKIPKVEMSDMSFSKDWSFYILAHTEFTPTETDTYACRVKHDSMAEPKTVYWDRDM
chain 5: SIINFEKL

Variants of: B1
Test: % of reporter cells activated (NFAT-GFP), raw; note: test concentration or dose not given here

| Variant | ratio to parent |
| --- | --- |
| chain 5 E6F | 0.153 |
| chain 5 E6S | 0.0513 |
| chain 5 S1Y | 0.419 |
| chain 5 I3E | 0.864 |
| chain 5 N4G | 0.0463 |
| chain 5 F5E | 0.742 |
| chain 5 S1I | 0.00139 |
| chain 5 L8G | 0.994 |
| chain 5 S1W | 0.0447 |
| chain 5 N4V | 0.00138 |
| chain 5 F5G | 0.516 |
| chain 5 I3M | 0.842 |
| chain 5 S1F | 0.0013 |
| chain 5 E6Q | 0.187 |
| chain 5 F5Y | 1.07 |
| chain 5 E6K | 0.608 |
| chain 5 E6M | 0.219 |
| chain 5 F5T | 0.843 |
| chain 5 L8Y | 1 |
| chain 5 I3H | 0.33 |
| chain 5 S1A | 0.48 |
| chain 5 I2Y | 0.597 |
| chain 5 N4Q | 0.000537 |
| chain 5 K7M | 0.848 |
| chain 5 F5P | 0.181 |

| Variant | ratio to parent |
| --- | --- |
| chain 5 K7I | 0.847 |
| chain 5 I2K | 0.743 |
| chain 5 K7Y | 1.04 |
| chain 5 K7F | 0.632 |
| chain 5 I2W | 0.749 |
| chain 5 L8Q | 1.07 |
| chain 5 E6N | 0.0535 |
| chain 5 L8M | 1.03 |
| chain 5 F5I | 0.96 |
| chain 5 I3P | 0.865 |
| chain 5 I3R | 0.301 |
| chain 5 N4W | 0.0025 |
| chain 5 S1N | 0.0326 |
| chain 5 N4Y | 0.021 |
| chain 5 I2Q | 0.713 |
| chain 5 S1E | 0.0746 |
| chain 5 I3G | 0.473 |
| chain 5 K7D | 0.979 |
| chain 5 N4E | 0.00277 |
| chain 5 E6D | 0.371 |
| chain 5 N4R | 0.19 |
| chain 5 F5N | 0.725 |
| chain 5 L8P | 1.07 |
| chain 5 L8F | 0.952 |
| chain 5 N4T | 0.0307 |

| Variant | ratio to parent |
| --- | --- |
| chain 5 K7T | 0.905 |
| chain 5 N4L | 0.617 |
| chain 5 I3N | 0.755 |
| chain 5 S1L | 0.00107 |
| chain 5 S1H | 0.199 |
| chain 5 E6H | 0.0978 |
| chain 5 I2T | 0.926 |
| chain 5 K7W | 0.776 |
| chain 5 S1Q | 0.0527 |
| chain 5 L8A | 1.01 |
| chain 5 F5V | 0.848 |
| chain 5 I2G | 1.04 |
| chain 5 L8N | 0.861 |
| chain 5 S1G | 0.521 |
| chain 5 I2L | 1.08 |
| chain 5 I3T | 0.716 |
| chain 5 I2M | 1.06 |
| chain 5 I2S | 0.94 |
| chain 5 K7L | 0.832 |
| chain 5 N4P | 0.0188 |
| chain 5 N4F | 0.0302 |
| chain 5 S1C | 0.0551 |
| chain 5 E6I | 0.0059 |
| chain 5 L8V | 0.83 |
| chain 5 I3A | 0.883 |

| Variant | ratio to parent |
| --- | --- |
| chain 5 N4C | 0.00253 |
| chain 5 I3L | 0.889 |
| chain 5 L8D | 0.834 |
| chain 5 F5Q | 0.97 |
| chain 5 S1P | 0.00277 |
| chain 5 N4S | 0.492 |
| chain 5 I3F | 0.0814 |
| chain 5 I2C | 1.04 |
| chain 5 K7V | 0.771 |
| chain 5 I3S | 0.592 |
| chain 5 N4A | 0.124 |
| chain 5 F5H | 0.943 |
| chain 5 K7C | 0.781 |
| chain 5 E6W | 0.117 |
| chain 5 I2F | 0.849 |
| chain 5 L8W | 0.828 |
| chain 5 E6V | 0.00707 |
| chain 5 K7H | 1.18 |
| chain 5 E6P | 0.00132 |
| chain 5 L8C | 0.85 |
| chain 5 S1R | 0.0909 |
| chain 5 E6L | 0.0059 |
| chain 5 K7A | 0.91 |
| chain 5 F5K | 0.803 |
| chain 5 N4H | 0.0158 |

| Variant | ratio to parent |
| --- | --- |
| chain 5 K7R | 1.09 |
| chain 5 S1K | 0.038 |
| chain 5 N4I | 0.0165 |
| chain 5 F5A | 0.976 |
| chain 5 L8S | 0.941 |
| chain 5 S1T | 0.66 |
| chain 5 N4M | 0.000769 |
| chain 5 F5S | 0.917 |
| chain 5 F5L | 1.02 |
| chain 5 E6Y | 0.106 |
| chain 5 I2E | 0.976 |
| chain 5 I2V | 1.1 |
| chain 5 F5C | 0.943 |
| chain 5 F5M | 1.08 |
| chain 5 I3C | 0.777 |
| chain 5 N4D | 0.0372 |
| chain 5 I3K | 0.521 |
| chain 5 E6A | 0.0174 |
| chain 5 L8I | 1.02 |
| chain 5 I3V | 1.06 |
| chain 5 L8R | 0.935 |
| chain 5 I2N | 0.607 |
| chain 5 K7E | 0.559 |
| chain 5 I2D | 0.912 |
| chain 5 I2H | 0.627 |

| Variant | ratio to parent |
| --- | --- |
| chain 5 N4K | 0.211 |
| chain 5 I2R | 0.651 |
| chain 5 E6G | 0.187 |
| chain 5 L8T | 0.968 |
| chain 5 F5D | 0.823 |
| chain 5 I2P | 0.794 |
| chain 5 K7Q | 1.01 |
| chain 5 K7P | 1.17 |
| chain 5 E6C | 0.00912 |
| chain 5 F5W | 0.699 |
| chain 5 S1V | 0.0177 |
| chain 5 I3D | 0.172 |
| chain 5 S1M | 0.0059 |
| chain 5 E6R | 0.00877 |
| chain 5 E6T | 0.0356 |
| chain 5 K7N | 0.903 |
| chain 5 I3Q | 0.605 |
| chain 5 I3W | 0.744 |
| chain 5 I3Y | 0.00742 |
| chain 5 L8H | 1.01 |
| chain 5 K7S | 0.912 |
| chain 5 K7G | 0.924 |
| chain 5 F5R | 0.818 |
| chain 5 L8E | 0.883 |
| chain 5 I2A | 1.01 |
